Measured values reported in US20140072613A1, “Compositions and Methods for Treating Cutaneous Scarring” (priority 2012, published 2014).

Key:
Test in all cases: biochemical
Format in all cases: biochemical
266 human kinases [1] = molecular target: 266 human kinases (Homo sapiens, UniProt O96017, R145W); details: CHK2(R145W)(h); 100 μM
Description: (§1) Specifically, in these assays, a positively charged substrate is phosphorylated with a radiolabeled phosphate group from an ATP if the kinase is not inhibited by an inhibitor peptide. The positively charged substrate then is attracted to a negatively charged filter membrane, quantified with a scintillation counter, and compared to a 100% activity control.

266 human kinases [2] = molecular target: 266 human kinases (Homo sapiens, UniProt P00533, L858R); details: EGFR(L858R)(h); 100 μM
Description: as §1

266 human kinases [3] = molecular target: 266 human kinases (Homo sapiens, UniProt P14616); details: IRR(h); 100 μM
Description: as §1

266 human kinases [4] = molecular target: T1, 266 human kinases (Homo sapiens, UniProt P54762); details: EphB1(h); 100 μM
T1 sequence (P54762 18-984): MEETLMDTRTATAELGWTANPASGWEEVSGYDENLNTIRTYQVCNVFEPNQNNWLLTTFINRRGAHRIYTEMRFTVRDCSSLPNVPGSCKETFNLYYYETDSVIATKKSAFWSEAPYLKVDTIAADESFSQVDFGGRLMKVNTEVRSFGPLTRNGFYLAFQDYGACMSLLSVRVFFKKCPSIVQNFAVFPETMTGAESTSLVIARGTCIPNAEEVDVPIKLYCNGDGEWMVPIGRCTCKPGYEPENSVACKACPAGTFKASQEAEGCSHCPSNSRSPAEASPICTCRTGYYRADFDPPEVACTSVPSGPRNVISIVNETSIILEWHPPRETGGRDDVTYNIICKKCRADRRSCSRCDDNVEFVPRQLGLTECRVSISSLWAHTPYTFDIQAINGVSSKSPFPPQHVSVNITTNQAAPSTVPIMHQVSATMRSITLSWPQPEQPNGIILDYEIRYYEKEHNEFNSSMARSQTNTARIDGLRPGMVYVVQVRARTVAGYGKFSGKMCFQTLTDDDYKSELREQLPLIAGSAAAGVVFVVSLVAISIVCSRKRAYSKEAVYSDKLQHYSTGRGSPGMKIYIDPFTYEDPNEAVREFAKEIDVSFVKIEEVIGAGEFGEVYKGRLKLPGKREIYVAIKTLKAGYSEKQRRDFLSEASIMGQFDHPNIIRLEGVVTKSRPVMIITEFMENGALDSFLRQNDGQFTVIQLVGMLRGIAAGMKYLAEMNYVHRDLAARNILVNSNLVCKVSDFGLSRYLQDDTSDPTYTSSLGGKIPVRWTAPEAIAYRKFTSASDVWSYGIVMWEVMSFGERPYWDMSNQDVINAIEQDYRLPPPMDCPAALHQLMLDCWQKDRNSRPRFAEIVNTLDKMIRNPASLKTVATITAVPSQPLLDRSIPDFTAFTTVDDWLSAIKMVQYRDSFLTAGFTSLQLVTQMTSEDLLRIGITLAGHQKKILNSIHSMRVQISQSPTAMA
Description: as §1

266 human kinases [5] = molecular target: 266 human kinases (Homo sapiens, UniProt Q05655); details: PKGδ(h); 100 μM
Description: as §1

266 human kinases [6] = molecular target: T2, 266 human kinases (Homo sapiens, UniProt Q6PHR2); details: ULK3(h); 100 μM
T2 sequence (Q6PHR2 1-472): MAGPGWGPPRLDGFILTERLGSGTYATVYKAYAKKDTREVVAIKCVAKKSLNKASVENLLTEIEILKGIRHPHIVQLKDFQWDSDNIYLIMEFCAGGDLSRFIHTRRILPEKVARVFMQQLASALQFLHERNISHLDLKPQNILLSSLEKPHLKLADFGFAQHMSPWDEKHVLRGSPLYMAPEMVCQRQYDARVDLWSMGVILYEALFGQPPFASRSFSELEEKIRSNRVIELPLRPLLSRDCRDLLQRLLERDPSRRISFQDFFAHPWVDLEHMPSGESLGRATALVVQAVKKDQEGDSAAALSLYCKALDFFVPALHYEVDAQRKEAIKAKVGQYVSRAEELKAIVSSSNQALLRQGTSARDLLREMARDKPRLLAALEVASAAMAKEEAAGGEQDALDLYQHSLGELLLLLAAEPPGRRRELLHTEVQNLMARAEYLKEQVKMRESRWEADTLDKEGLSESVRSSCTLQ
Description: as §1

266 human kinases [7] = molecular target: T3, 266 human kinases (Homo sapiens, UniProt Q9UHD2); details: TBK1(h); 100 μM
T3 sequence (Q9UHD2 1-729): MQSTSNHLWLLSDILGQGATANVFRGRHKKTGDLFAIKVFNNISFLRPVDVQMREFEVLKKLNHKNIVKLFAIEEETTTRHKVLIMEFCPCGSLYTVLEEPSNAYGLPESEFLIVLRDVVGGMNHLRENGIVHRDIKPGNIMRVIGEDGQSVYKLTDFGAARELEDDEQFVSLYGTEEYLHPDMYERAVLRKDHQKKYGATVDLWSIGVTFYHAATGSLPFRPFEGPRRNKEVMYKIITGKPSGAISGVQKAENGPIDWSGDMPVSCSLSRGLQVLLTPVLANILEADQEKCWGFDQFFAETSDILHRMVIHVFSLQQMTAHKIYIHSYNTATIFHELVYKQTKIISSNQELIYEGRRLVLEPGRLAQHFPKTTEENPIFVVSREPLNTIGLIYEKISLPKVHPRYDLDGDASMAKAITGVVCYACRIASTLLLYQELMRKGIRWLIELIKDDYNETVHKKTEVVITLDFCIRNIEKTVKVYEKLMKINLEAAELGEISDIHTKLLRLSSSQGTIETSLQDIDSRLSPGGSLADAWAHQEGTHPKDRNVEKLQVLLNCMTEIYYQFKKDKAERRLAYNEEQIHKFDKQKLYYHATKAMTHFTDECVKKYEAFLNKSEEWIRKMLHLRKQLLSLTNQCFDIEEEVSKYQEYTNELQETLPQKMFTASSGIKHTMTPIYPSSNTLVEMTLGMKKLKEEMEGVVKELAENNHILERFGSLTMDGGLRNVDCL
Description: as §1

Sequence of 266 human kinases (Homo sapiens, UniProt Q05655) (Q05655 whole entry): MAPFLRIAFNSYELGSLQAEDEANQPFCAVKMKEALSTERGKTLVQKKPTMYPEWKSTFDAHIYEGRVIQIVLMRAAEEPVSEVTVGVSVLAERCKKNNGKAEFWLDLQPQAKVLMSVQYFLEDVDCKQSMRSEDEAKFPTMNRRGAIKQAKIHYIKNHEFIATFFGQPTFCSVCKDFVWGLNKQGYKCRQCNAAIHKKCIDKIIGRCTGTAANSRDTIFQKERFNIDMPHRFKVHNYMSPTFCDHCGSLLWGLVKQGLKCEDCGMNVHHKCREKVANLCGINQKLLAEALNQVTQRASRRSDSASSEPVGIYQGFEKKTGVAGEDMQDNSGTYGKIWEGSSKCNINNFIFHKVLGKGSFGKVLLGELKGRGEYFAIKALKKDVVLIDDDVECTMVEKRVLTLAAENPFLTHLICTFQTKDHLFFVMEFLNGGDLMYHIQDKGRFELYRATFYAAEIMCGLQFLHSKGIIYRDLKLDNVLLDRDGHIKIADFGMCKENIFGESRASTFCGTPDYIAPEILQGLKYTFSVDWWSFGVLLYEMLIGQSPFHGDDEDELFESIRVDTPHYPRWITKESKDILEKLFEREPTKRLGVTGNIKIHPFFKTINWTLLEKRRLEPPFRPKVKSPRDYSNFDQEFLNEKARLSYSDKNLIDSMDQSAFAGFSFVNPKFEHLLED
Sequence of 266 human kinases (Homo sapiens, UniProt P14616) (P14616 27-1297): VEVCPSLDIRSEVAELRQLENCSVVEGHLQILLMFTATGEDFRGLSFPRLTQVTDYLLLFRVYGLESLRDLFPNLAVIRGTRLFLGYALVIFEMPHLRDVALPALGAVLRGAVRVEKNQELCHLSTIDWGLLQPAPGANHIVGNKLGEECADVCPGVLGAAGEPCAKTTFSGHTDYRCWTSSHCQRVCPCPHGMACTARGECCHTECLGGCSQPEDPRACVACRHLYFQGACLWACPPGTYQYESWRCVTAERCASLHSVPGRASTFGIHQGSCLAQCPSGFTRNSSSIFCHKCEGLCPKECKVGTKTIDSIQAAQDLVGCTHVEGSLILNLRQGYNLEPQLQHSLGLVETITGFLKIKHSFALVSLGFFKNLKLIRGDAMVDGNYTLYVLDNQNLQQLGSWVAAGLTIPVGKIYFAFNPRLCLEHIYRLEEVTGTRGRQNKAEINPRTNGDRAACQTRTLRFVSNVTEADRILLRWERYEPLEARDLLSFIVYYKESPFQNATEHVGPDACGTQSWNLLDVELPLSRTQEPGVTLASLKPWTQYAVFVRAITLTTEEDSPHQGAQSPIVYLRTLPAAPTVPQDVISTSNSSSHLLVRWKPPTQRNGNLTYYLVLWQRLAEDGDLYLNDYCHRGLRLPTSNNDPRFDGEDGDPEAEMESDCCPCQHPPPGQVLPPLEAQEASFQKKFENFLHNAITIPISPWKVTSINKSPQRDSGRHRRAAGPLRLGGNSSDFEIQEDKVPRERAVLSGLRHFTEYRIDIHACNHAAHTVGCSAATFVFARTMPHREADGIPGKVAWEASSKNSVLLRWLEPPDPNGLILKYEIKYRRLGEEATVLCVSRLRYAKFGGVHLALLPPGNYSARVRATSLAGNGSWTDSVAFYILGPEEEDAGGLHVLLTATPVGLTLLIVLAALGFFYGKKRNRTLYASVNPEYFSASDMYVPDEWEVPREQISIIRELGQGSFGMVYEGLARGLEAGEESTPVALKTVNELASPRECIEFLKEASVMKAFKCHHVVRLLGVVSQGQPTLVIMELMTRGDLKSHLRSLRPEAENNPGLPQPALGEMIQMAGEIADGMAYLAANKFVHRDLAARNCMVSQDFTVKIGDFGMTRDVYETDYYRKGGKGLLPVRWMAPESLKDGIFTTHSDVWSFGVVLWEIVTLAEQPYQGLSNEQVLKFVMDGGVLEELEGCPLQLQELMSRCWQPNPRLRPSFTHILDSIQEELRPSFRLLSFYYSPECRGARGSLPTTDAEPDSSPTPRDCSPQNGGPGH
Sequence of 266 human kinases (Homo sapiens, UniProt O96017, R145W) (O96017 whole entry R145W): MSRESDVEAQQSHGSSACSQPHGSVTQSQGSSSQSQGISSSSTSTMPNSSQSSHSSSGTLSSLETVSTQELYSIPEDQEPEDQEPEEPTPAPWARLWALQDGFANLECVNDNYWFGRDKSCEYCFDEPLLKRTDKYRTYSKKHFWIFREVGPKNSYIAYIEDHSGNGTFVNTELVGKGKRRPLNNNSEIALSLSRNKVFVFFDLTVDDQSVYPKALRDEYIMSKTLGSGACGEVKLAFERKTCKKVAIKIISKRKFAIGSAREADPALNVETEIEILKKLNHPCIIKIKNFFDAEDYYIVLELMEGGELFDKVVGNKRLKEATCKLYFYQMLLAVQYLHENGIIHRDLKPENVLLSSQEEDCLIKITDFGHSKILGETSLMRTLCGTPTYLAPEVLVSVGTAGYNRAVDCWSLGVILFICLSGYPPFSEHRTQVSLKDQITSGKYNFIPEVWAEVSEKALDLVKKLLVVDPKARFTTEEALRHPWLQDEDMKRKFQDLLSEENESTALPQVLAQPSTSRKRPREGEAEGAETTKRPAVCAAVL

| Sequence | % activity (266 human kinases [1]) [%] | % activity (266 human kinases [2]) [%] | % activity (266 human kinases [3]) [%] | % activity (266 human kinases [4]) [%] | % activity (266 human kinases [5]) [%] | % activity (266 human kinases [6]) [%] | % activity (266 human kinases [7]) [%] |
| --- | --- | --- | --- | --- | --- | --- | --- |
| HRRIKAWLKKIKALARQLGVAA (mammal) [MMI-0500] | 3 | 26 | 10 | 37 | 61 | 177 | 16 |
| YARAAARQARAKALNRQLGVA (mammal) [MMI-0200] | 81 | 120 | 69 | 95 | 101 | 164 | 98 |
